From patent publication US20210388087A1 (Chugai, published 2021)

T1: Human CD3eg linker (human)
T1 construct: Single-chain construct; also called recombinant human CD3
T1 chain: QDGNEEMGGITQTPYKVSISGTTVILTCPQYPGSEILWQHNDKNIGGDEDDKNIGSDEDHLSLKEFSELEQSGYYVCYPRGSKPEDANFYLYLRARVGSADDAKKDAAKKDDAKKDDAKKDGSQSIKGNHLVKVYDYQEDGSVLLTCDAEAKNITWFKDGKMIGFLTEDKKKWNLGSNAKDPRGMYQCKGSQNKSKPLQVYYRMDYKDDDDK

B1: H183/L072 VL E27aY (antibody, name in Kabat numbering, V domains shown)
VH: QVQLVESGGGLVQPGRSLRLSCAASGFTFSNAWMHWVRQAPGKGLEWVAQIKDKGNAYAAYYAPSVKGRFTISRDDSKNSIYLQMNSLKTEDTAVYYCHYVHYASASTVLPAFGVDAWGQGTTVTVSS
VL: DIVMTQSPLSLPVTPGEPASISCQASQYLVHMNRNTYLHWYQQKPGQAPRLLIYKVSNRFPGVPDRFSGSGSGTDFTLKISRVEAEDVGVYYCAQGTSVPFTFGQGTKLEIK
B2: H183/L072 VL F55A (antibody, name in Kabat numbering, V domains shown)
VH: QVQLVESGGGLVQPGRSLRLSCAASGFTFSNAWMHWVRQAPGKGLEWVAQIKDKGNAYAAYYAPSVKGRFTISRDDSKNSIYLQMNSLKTEDTAVYYCHYVHYASASTVLPAFGVDAWGQGTTVTVSS
VL: DIVMTQSPLSLPVTPGEPASISCQASQELVHMNRNTYLHWYQQKPGQAPRLLIYKVSNRAPGVPDRFSGSGSGTDFTLKISRVEAEDVGVYYCAQGTSVPFTFGQGTKLEIK
B3: H183/L072 VL F55D (antibody, name in Kabat numbering, V domains shown)
VH: QVQLVESGGGLVQPGRSLRLSCAASGFTFSNAWMHWVRQAPGKGLEWVAQIKDKGNAYAAYYAPSVKGRFTISRDDSKNSIYLQMNSLKTEDTAVYYCHYVHYASASTVLPAFGVDAWGQGTTVTVSS
VL: DIVMTQSPLSLPVTPGEPASISCQASQELVHMNRNTYLHWYQQKPGQAPRLLIYKVSNRDPGVPDRFSGSGSGTDFTLKISRVEAEDVGVYYCAQGTSVPFTFGQGTKLEIK
B4: H183/L072 VL F55E (antibody, name in Kabat numbering, V domains shown)
VH: QVQLVESGGGLVQPGRSLRLSCAASGFTFSNAWMHWVRQAPGKGLEWVAQIKDKGNAYAAYYAPSVKGRFTISRDDSKNSIYLQMNSLKTEDTAVYYCHYVHYASASTVLPAFGVDAWGQGTTVTVSS
VL: DIVMTQSPLSLPVTPGEPASISCQASQELVHMNRNTYLHWYQQKPGQAPRLLIYKVSNREPGVPDRFSGSGSGTDFTLKISRVEAEDVGVYYCAQGTSVPFTFGQGTKLEIK
B5: H183/L072 VL F55G (antibody, name in Kabat numbering, V domains shown)
VH: QVQLVESGGGLVQPGRSLRLSCAASGFTFSNAWMHWVRQAPGKGLEWVAQIKDKGNAYAAYYAPSVKGRFTISRDDSKNSIYLQMNSLKTEDTAVYYCHYVHYASASTVLPAFGVDAWGQGTTVTVSS
VL: DIVMTQSPLSLPVTPGEPASISCQASQELVHMNRNTYLHWYQQKPGQAPRLLIYKVSNRGPGVPDRFSGSGSGTDFTLKISRVEAEDVGVYYCAQGTSVPFTFGQGTKLEIK
B6: H183/L072 VL F55H (antibody, name in Kabat numbering, V domains shown)
VH: QVQLVESGGGLVQPGRSLRLSCAASGFTFSNAWMHWVRQAPGKGLEWVAQIKDKGNAYAAYYAPSVKGRFTISRDDSKNSIYLQMNSLKTEDTAVYYCHYVHYASASTVLPAFGVDAWGQGTTVTVSS
VL: DIVMTQSPLSLPVTPGEPASISCQASQELVHMNRNTYLHWYQQKPGQAPRLLIYKVSNRHPGVPDRFSGSGSGTDFTLKISRVEAEDVGVYYCAQGTSVPFTFGQGTKLEIK
B7: H183/L072 VL F55I (antibody, name in Kabat numbering, V domains shown)
VH: QVQLVESGGGLVQPGRSLRLSCAASGFTFSNAWMHWVRQAPGKGLEWVAQIKDKGNAYAAYYAPSVKGRFTISRDDSKNSIYLQMNSLKTEDTAVYYCHYVHYASASTVLPAFGVDAWGQGTTVTVSS
VL: DIVMTQSPLSLPVTPGEPASISCQASQELVHMNRNTYLHWYQQKPGQAPRLLIYKVSNRIPGVPDRFSGSGSGTDFTLKISRVEAEDVGVYYCAQGTSVPFTFGQGTKLEIK
B8: H183/L072 VL F55K (antibody, name in Kabat numbering, V domains shown)
VH: QVQLVESGGGLVQPGRSLRLSCAASGFTFSNAWMHWVRQAPGKGLEWVAQIKDKGNAYAAYYAPSVKGRFTISRDDSKNSIYLQMNSLKTEDTAVYYCHYVHYASASTVLPAFGVDAWGQGTTVTVSS
VL: DIVMTQSPLSLPVTPGEPASISCQASQELVHMNRNTYLHWYQQKPGQAPRLLIYKVSNRKPGVPDRFSGSGSGTDFTLKISRVEAEDVGVYYCAQGTSVPFTFGQGTKLEIK
B9: H183/L072 VL F55L (antibody, name in Kabat numbering, V domains shown)
VH: QVQLVESGGGLVQPGRSLRLSCAASGFTFSNAWMHWVRQAPGKGLEWVAQIKDKGNAYAAYYAPSVKGRFTISRDDSKNSIYLQMNSLKTEDTAVYYCHYVHYASASTVLPAFGVDAWGQGTTVTVSS
VL: DIVMTQSPLSLPVTPGEPASISCQASQELVHMNRNTYLHWYQQKPGQAPRLLIYKVSNRLPGVPDRFSGSGSGTDFTLKISRVEAEDVGVYYCAQGTSVPFTFGQGTKLEIK
B10: H183/L072 VL F55M (antibody, name in Kabat numbering, V domains shown)
VH: QVQLVESGGGLVQPGRSLRLSCAASGFTFSNAWMHWVRQAPGKGLEWVAQIKDKGNAYAAYYAPSVKGRFTISRDDSKNSIYLQMNSLKTEDTAVYYCHYVHYASASTVLPAFGVDAWGQGTTVTVSS
VL: DIVMTQSPLSLPVTPGEPASISCQASQELVHMNRNTYLHWYQQKPGQAPRLLIYKVSNRMPGVPDRFSGSGSGTDFTLKISRVEAEDVGVYYCAQGTSVPFTFGQGTKLEIK
B11: H183/L072 VL F55N (antibody, name in Kabat numbering, V domains shown)
VH: QVQLVESGGGLVQPGRSLRLSCAASGFTFSNAWMHWVRQAPGKGLEWVAQIKDKGNAYAAYYAPSVKGRFTISRDDSKNSIYLQMNSLKTEDTAVYYCHYVHYASASTVLPAFGVDAWGQGTTVTVSS
VL: DIVMTQSPLSLPVTPGEPASISCQASQELVHMNRNTYLHWYQQKPGQAPRLLIYKVSNRNPGVPDRFSGSGSGTDFTLKISRVEAEDVGVYYCAQGTSVPFTFGQGTKLEIK
B12: H183/L072 VL F55P (antibody, name in Kabat numbering, V domains shown)
VH: QVQLVESGGGLVQPGRSLRLSCAASGFTFSNAWMHWVRQAPGKGLEWVAQIKDKGNAYAAYYAPSVKGRFTISRDDSKNSIYLQMNSLKTEDTAVYYCHYVHYASASTVLPAFGVDAWGQGTTVTVSS
VL: DIVMTQSPLSLPVTPGEPASISCQASQELVHMNRNTYLHWYQQKPGQAPRLLIYKVSNRPPGVPDRFSGSGSGTDFTLKISRVEAEDVGVYYCAQGTSVPFTFGQGTKLEIK
B13: H183/L072 VL F55Q (antibody, name in Kabat numbering, V domains shown)
VH: QVQLVESGGGLVQPGRSLRLSCAASGFTFSNAWMHWVRQAPGKGLEWVAQIKDKGNAYAAYYAPSVKGRFTISRDDSKNSIYLQMNSLKTEDTAVYYCHYVHYASASTVLPAFGVDAWGQGTTVTVSS
VL: DIVMTQSPLSLPVTPGEPASISCQASQELVHMNRNTYLHWYQQKPGQAPRLLIYKVSNRQPGVPDRFSGSGSGTDFTLKISRVEAEDVGVYYCAQGTSVPFTFGQGTKLEIK
B14: H183/L072 VL F55R (antibody, name in Kabat numbering, V domains shown)
VH: QVQLVESGGGLVQPGRSLRLSCAASGFTFSNAWMHWVRQAPGKGLEWVAQIKDKGNAYAAYYAPSVKGRFTISRDDSKNSIYLQMNSLKTEDTAVYYCHYVHYASASTVLPAFGVDAWGQGTTVTVSS
VL: DIVMTQSPLSLPVTPGEPASISCQASQELVHMNRNTYLHWYQQKPGQAPRLLIYKVSNRRPGVPDRFSGSGSGTDFTLKISRVEAEDVGVYYCAQGTSVPFTFGQGTKLEIK
B15: H183/L072 VL F55S (antibody, name in Kabat numbering, V domains shown)
VH: QVQLVESGGGLVQPGRSLRLSCAASGFTFSNAWMHWVRQAPGKGLEWVAQIKDKGNAYAAYYAPSVKGRFTISRDDSKNSIYLQMNSLKTEDTAVYYCHYVHYASASTVLPAFGVDAWGQGTTVTVSS
VL: DIVMTQSPLSLPVTPGEPASISCQASQELVHMNRNTYLHWYQQKPGQAPRLLIYKVSNRSPGVPDRFSGSGSGTDFTLKISRVEAEDVGVYYCAQGTSVPFTFGQGTKLEIK

Biological target: T1, Human CD3eg linker
Experiment: SPR; fold vs parent H183/L072

Point of comparison: B6, “fold change of affinity” value 7.4 fold. Against it:
- B1 — lower, 1.2 fold
- B2 — lower, 7.2 fold
- B3 — lower, 6.1 fold
- B4 — lower, 3.4 fold
- B5 — higher, 8.1 fold
- B7 — lower, 3.4 fold
- B8 — higher, 8.3 fold
- B9 — lower, 2.9 fold
- B10 — lower, 3.6 fold
- B11 — lower, 3.9 fold
- B12 — higher, 8.1 fold
- B13 — lower, 2.9 fold
- B14 — lower, 4 fold
- B15 — lower, 6.6 fold
